Blank lines part the entries; values can stand above or below the binder they belong to.
Tests used:
FGFR2c (acro) [1] = molecular target: T1, FGFR2c (acro) (UniProt P21802 22-377); experiment: ELISA
FGFR4 (acro) [2] = molecular target: T2, FGFR4 (acro) (UniProt P22455 22-369); experiment: ELISA
T2 sequence (looked up): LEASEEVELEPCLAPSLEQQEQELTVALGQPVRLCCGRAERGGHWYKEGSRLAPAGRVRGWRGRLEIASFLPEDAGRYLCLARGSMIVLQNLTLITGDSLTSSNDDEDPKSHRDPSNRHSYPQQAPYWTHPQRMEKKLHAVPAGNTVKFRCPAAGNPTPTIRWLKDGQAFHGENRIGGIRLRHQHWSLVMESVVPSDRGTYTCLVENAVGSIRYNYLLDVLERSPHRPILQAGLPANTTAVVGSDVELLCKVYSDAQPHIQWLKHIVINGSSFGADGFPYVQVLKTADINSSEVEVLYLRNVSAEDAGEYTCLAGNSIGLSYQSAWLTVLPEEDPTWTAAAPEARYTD

[3] = molecular target: T3, human FGFR2b (Kaixia Biotechnology, catalog number FGR-HM1BB) (human, UniProt P21802-3 22-378); experiment: ELISA, FGFR2b coated at 1 µg/ml
T3 construct: extracellular domain; bought; also called hFGFR2b; human FGFR2b protein

[4] = molecular target: T3, human FGFR2b (Kaixia Biotechnology, …); experiment: BLI, antibody on AHC2 sensor
FGFR2b on KATO III cells = molecular target: T4, FGFR2b on KATO III cells (human, UniProt P21802-3 22-822); experiment: flow cytometry, KATO III cells
T4 construct: whole, on cells; also called KATO III cells that overexpress FGFR2b

FGFR2c (acro) [5] = molecular target: T1, FGFR2c (acro); experiment: ELISA, antibody 10 µg/mL
FGFR4 (acro) [6] = molecular target: T2, FGFR4 (acro); experiment: ELISA, antibody 10 µg/mL
[7] = molecular target: T5, recombinant cynomolgus monkey FGFR2b (cynomolgus monkey); experiment: ELISA, antibody 1ug/mL
T5 construct: extracellular domain; bought; also called cynomolgus macaque FGFR2b

T3 sequence (P21802 other isoform, or with tags, fused parts or gaps): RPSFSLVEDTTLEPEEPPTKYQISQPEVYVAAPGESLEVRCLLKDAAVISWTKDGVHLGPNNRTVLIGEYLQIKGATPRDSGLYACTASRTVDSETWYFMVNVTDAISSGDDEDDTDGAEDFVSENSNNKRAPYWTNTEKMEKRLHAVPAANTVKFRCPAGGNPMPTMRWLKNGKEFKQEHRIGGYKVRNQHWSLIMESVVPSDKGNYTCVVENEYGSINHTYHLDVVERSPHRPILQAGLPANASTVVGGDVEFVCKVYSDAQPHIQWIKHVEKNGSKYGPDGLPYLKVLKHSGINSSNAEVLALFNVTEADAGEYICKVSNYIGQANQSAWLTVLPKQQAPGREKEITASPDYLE
T1 sequence (P21802 22-377): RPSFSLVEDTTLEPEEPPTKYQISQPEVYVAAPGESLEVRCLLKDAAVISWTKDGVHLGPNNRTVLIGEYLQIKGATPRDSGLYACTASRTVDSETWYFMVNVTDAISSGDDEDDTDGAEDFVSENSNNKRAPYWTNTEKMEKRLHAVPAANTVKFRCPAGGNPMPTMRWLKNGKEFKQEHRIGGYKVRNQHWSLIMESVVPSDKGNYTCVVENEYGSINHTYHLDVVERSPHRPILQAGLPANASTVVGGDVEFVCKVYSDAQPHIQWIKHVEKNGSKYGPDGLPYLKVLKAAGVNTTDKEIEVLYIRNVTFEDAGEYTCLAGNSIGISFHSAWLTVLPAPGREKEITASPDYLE
T4 sequence (P21802 other isoform, or with tags, fused parts or gaps): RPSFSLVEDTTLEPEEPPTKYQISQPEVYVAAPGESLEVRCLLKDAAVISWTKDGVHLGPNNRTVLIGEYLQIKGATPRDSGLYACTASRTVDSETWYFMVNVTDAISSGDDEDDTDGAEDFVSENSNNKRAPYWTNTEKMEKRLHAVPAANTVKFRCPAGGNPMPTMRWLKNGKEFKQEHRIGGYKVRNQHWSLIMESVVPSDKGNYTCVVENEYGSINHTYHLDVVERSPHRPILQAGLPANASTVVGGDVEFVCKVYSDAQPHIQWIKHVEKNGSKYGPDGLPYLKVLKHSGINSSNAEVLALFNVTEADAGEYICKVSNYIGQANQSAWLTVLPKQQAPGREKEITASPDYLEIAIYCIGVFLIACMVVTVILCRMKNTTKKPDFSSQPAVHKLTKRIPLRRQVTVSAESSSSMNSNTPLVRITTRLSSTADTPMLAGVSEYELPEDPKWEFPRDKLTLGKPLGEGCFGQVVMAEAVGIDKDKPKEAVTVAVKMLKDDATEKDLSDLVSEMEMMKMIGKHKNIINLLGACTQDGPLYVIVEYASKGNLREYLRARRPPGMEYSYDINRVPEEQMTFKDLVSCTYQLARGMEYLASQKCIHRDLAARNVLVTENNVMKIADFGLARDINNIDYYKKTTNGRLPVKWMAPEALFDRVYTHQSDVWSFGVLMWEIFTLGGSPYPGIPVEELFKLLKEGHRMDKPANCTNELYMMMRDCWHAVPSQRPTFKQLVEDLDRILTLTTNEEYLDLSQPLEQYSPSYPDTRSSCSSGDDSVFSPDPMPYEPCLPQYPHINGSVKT

binding result (FGFR4 (acro) [2]): no binding (tested: 10 µg/mL)
EC50 [3]: 0.00818 µg/mL
Kd [4]: 12.2 nM
koff [4]: 0.00477 s⁻¹
kon [4]: 392000 M⁻¹ s⁻¹
EC50 (FGFR2b on KATO III cells): 0.0656 µg/mL
OD (450 nm) value (FGFR4 (acro) [6]): 0.099
OD (450 nm) value [7]: 3.27
B6: 1A3 scFv-Fc (Fc fusion)
chain: QVQLQQPGAELVKPGASVKMSCKASGYTFASYNLHWVKQTPGQGLEWIGLIYPENGDTSYNQKFKGKATLTADKSSSTAYIQLSSLTSEDSAVYFCARGGFDYWGQGTTLTVSQGGGGSGGGGSGGGGSDIQMTQSPASLSASVGETVTITCGASENIYGALNWYQRKQGKSPQLLIYGATNLADGMSSRFSGSGSGRQYSLKISSLHPDDVATYYCQNVLSTPYTFGGGTKLEIKESKYGPPCPPCPAPEAAGGPSVFLFPPKPKDTLMISRTPEVTCVVVDVSQEDPEVQFNWYVDGVEVHNAKTKPREEQFNSTYRVVSVLTVLHQDWLNGKEYKCKVSNKGLPSSIEKTISKAKGQPREPQVYTLPPSQEEMTKNQVSLTCLVKGFYPSDIAVEWESNGQPENNYKTTPPVLDSDGSFFLYSKLTVDKSRWQEGNVFSCSVMHEALHNHYTQKSLSLSLG
notes: scFv-Fc dimer

binding result (FGFR2c (acro) [1]): no binding (tested: 10 µg/mL)
binding result (FGFR4 (acro) [2]): no binding (tested: 10 µg/mL)
EC50 [3]: 0.00818 µg/mL
Kd [4]: 7.62 nM
koff [4]: 0.00231 s⁻¹
kon [4]: 303000 M⁻¹ s⁻¹
EC50 (FGFR2b on KATO III cells): 0.159 µg/mL
OD (450 nm) value (FGFR2c (acro) [5]): 0.106
OD (450 nm) value (FGFR4 (acro) [6]): 0.123
OD (450 nm) value [7]: 3.22
B7: 3F10 scFv-Fc (Fc fusion)
chain: EVQLQQSGAELVKPGASVKMSCKASGYTFSFYNIHWVRQTPGQGLEWIGLIYPDNGDTSYNQKFKAKATLTADKSSSTAYMQLSSLTSEDSAVYYCARGGFDYWGQGTTLTVSSGGGGSGGGGSGGGGSDVLMTQSPASLSASVGETVTITCGASENIYGALNWYQRKQGKSPQLLIYGATNLADGMSSRFSGSGSGRQYSLKISSLHPDDVATYYCQNVLSTPYTFGGGTKLEIKESKYGPPCPPCPAPEAAGGPSVFLFPPKPKDTLMISRTPEVTCVVVDVSQEDPEVQFNWYVDGVEVHNAKTKPREEQFNSTYRVVSVLTVLHQDWLNGKEYKCKVSNKGLPSSIEKTISKAKGQPREPQVYTLPPSQEEMTKNQVSLTCLVKGFYPSDIAVEWESNGQPENNYKTTPPVLDSDGSFFLYSKLTVDKSRWQEGNVFSCSVMHEALHNHYTQKSLSLSLG
notes: scFv-Fc dimer

binding result (FGFR2c (acro) [1]): no binding (tested: 10 µg/mL)
binding result (FGFR4 (acro) [2]): no binding (tested: 10 µg/mL)
EC50 [3]: 0.0154 µg/mL
Kd [4]: 4.51 nM
koff [4]: 0.00208 s⁻¹
kon [4]: 460000 M⁻¹ s⁻¹
EC50 (FGFR2b on KATO III cells): 0.167 µg/mL
OD (450 nm) value (FGFR2c (acro) [5]): 0.091
OD (450 nm) value (FGFR4 (acro) [6]): 0.156
OD (450 nm) value [7]: 3.17
B8: 1D7 scFv-Fc (Fc fusion)
chain: QIQLQQSGAELVKPGASVKMSCKASGYTFRYYNMHWVKRTPGQGLEWIGLIYPDNGDTSYNQKFKGKATLTADTSSSTAYMQLSSLTSEDSAVYYCARGGLDYWGQGTSLTVSSGGGGSGGGGSGGGGSDIQMTQSPSSMSASLGDRITITCQATQDIVKNLNWYQQKPGKPPSFLIYYATELAEGVPSRFSGSGSGSDYSLTISNLESEDFADYYCLQFYEFPLTFGAGTKLELKESKYGPPCPPCPAPEAAGGPSVFLFPPKPKDTLMISRTPEVTCVVVDVSQEDPEVQFNWYVDGVEVHNAKTKPREEQFNSTYRVVSVLTVLHQDWLNGKEYKCKVSNKGLPSSIEKTISKAKGQPREPQVYTLPPSQEEMTKNQVSLTCLVKGFYPSDIAVEWESNGQPENNYKTTPPVLDSDGSFFLYSKLTVDKSRWQEGNVFSCSVMHEALHNHYTQKSLSLSLG
notes: scFv-Fc dimer

Second part, the binder before the results:

B1: 2B2 scFv-Fc (Fc fusion)
chain: QLQLQQSGAELVKPGASVKMSCKASGYTFASYNLHWVKQTPGQGLEWIGLIYPENGDTSYNQKFKDKATLTADKSSTTAYIQLSSLASEDSAVYFCARGGFDYWGQGTTLTVSSGGGGSGGGGSGGGGSDIVMTQSQKFMSTSVGDRVSVTCKASQNVGTNVAWYQQKPGQSPKALIYSASYRYSGVPDRFTGSGSGTDYTLTISSVQAEDLALYYCQQHYSTPYTFGGGTKLELKESKYGPPCPPCPAPEAAGGPSVFLFPPKPKDTLMISRTPEVTCVVVDVSQEDPEVQFNWYVDGVEVHNAKTKPREEQFNSTYRVVSVLTVLHQDWLNGKEYKCKVSNKGLPSSIEKTISKAKGQPREPQVYTLPPSQEEMTKNQVSLTCLVKGFYPSDIAVEWESNGQPENNYKTTPPVLDSDGSFFLYSKLTVDKSRWQEGNVFSCSVMHEALHNHYTQKSLSLSLG
notes: scFv-Fc dimer
binding result (FGFR2c (acro) [1]): no binding (tested: 10 µg/mL)
binding result (FGFR4 (acro) [2]): no binding (tested: 10 µg/mL)
EC50 [3]: 0.0216 µg/mL
Kd [4]: 6.18 nM
koff [4]: 0.00286 s⁻¹
kon [4]: 462000 M⁻¹ s⁻¹
EC50 (FGFR2b on KATO III cells): 0.233 µg/mL
OD (450 nm) value (FGFR2c (acro) [5]): 0.113
OD (450 nm) value (FGFR4 (acro) [6]): 0.093
OD (450 nm) value [7]: 3.19

B2: 3A3 scFv-Fc (Fc fusion)
chain: QVQLQQSGAELVKPGASVKMSCKASGYTFTTYNIHWVRQTPGQGLEWIGLIYPDNGDTSYNQKFKAKATLTADKSSSTAYMHLSSLTSEDSAVYYCARGGFDYWGQGTTLTVSSGGGGSGGGGSGGGGSDIVMTQSHKFMSTSVGDRVSITCKASQDVNTDVSWYQQKPGQSPKLLIYSASYRYTGVPTRFTGSGSGTDFTFTISGVQAEDLADYYCQQHYNTPYTFGGGTRLEIKESKYGPPCPPCPAPEAAGGPSVFLFPPKPKDTLMISRTPEVTCVVVDVSQEDPEVQFNWYVDGVEVHNAKTKPREEQFNSTYRVVSVLTVLHQDWLNGKEYKCKVSNKGLPSSIEKTISKAKGQPREPQVYTLPPSQEEMTKNQVSLTCLVKGFYPSDIAVEWESNGQPENNYKTTPPVLDSDGSFFLYSKLTVDKSRWQEGNVFSCSVMHEALHNHYTQKSLSLSLG
notes: scFv-Fc dimer
binding result (FGFR2c (acro) [1]): no binding (tested: 10 µg/mL)
binding result (FGFR4 (acro) [2]): no binding (tested: 10 µg/mL)
EC50 [3]: 0.0216 µg/mL
Kd [4]: 3.71 nM
koff [4]: 0.00133 s⁻¹
kon [4]: 359000 M⁻¹ s⁻¹
EC50 (FGFR2b on KATO III cells): 0.236 µg/mL
OD (450 nm) value (FGFR2c (acro) [5]): 0.137
OD (450 nm) value (FGFR4 (acro) [6]): 0.136
OD (450 nm) value [7]: 3.2

B3: 3B7 scFv-Fc (Fc fusion)
chain: EVQLQQSGAELVKPGASVKMSCKASGYTFRYYNMHWVKRTPGQGLEWIGLIYPDNGDTSYNQKFKGKATLTADTSSSTAYMQLSSLTSEDSAVYYCARGGFDYWGQGTTLTVSSGGGGSGGGGSGGGGSDIQMTQSPASLSASVGETVTITCGASENIYGALNWYQRKQGKSPQLLIYGATNLADGMSSRFSGSGSGRQYSLKISSLHPDDVATYYCQNVLSTPYTFGGGTKLELKESKYGPPCPPCPAPEAAGGPSVFLFPPKPKDTLMISRTPEVTCVVVDVSQEDPEVQFNWYVDGVEVHNAKTKPREEQFNSTYRVVSVLTVLHQDWLNGKEYKCKVSNKGLPSSIEKTISKAKGQPREPQVYTLPPSQEEMTKNQVSLTCLVKGFYPSDIAVEWESNGQPENNYKTTPPVLDSDGSFFLYSKLTVDKSRWQEGNVFSCSVMHEALHNHYTQKSLSLSLG
notes: scFv-Fc dimer
binding result (FGFR2c (acro) [1]): no binding (tested: 10 µg/mL)
binding result (FGFR4 (acro) [2]): no binding (tested: 10 µg/mL)
EC50 [3]: 0.0147 µg/mL
Kd [4]: 7.6 nM
koff [4]: 0.00203 s⁻¹
kon [4]: 267000 M⁻¹ s⁻¹
EC50 (FGFR2b on KATO III cells): 0.117 µg/mL
OD (450 nm) value (FGFR2c (acro) [5]): 0.089
OD (450 nm) value (FGFR4 (acro) [6]): 0.116
OD (450 nm) value [7]: 3.12

B4: 3F5 scFv-Fc (Fc fusion)
chain: EIQLQQSGAELVKPGASVKMSCKASGYTFRYYNMHWVKRTPGQGLEWIGLIYPDNGDTSYNQKFKGKATLTADTSSSTAYMQLSSLTSEDSAVYYCARGGLDYWGQGTTLTVSSGGGGSGGGGSGGGGSDIVLTQSPASLSASVGETVTITCGASENIYGALNWYQRKQGKSPQLLIYGATNLADGMSSRFSGSGSGRQYSLKISSLHPDDVATYYCQNVLSTPYTFGGGTKLEIKESKYGPPCPPCPAPEAAGGPSVFLFPPKPKDTLMISRTPEVTCVVVDVSQEDPEVQFNWYVDGVEVHNAKTKPREEQFNSTYRVVSVLTVLHQDWLNGKEYKCKVSNKGLPSSIEKTISKAKGQPREPQVYTLPPSQEEMTKNQVSLTCLVKGFYPSDIAVEWESNGQPENNYKTTPPVLDSDGSFFLYSKLTVDKSRWQEGNVFSCSVMHEALHNHYTQKSLSLSLG
notes: scFv-Fc dimer
binding result (FGFR2c (acro) [1]): no binding (tested: 10 µg/mL)
binding result (FGFR4 (acro) [2]): no binding (tested: 10 µg/mL)
EC50 [3]: 0.0159 µg/mL
Kd [4]: 5.1 nM
koff [4]: 0.00143 s⁻¹
kon [4]: 281000 M⁻¹ s⁻¹
EC50 (FGFR2b on KATO III cells): 0.105 µg/mL
OD (450 nm) value (FGFR2c (acro) [5]): 0.111
OD (450 nm) value (FGFR4 (acro) [6]): 0.145
OD (450 nm) value [7]: 3.17

B5: 3C9 scFv-Fc (Fc fusion)
chain: EIQLQQSGAELVKPGASVKMSCKASGYIFRYYNMHWVKRTPGQGLEWIGLIYPDNGDTSYNQKFKGKATLTADTSSSTAYMQLSSLTSEDSAVYYCARGGLDYWGQGTTLTVSSGGGGSGGGGSGGGGSDIQMIQSPASLSASVGETVTITCGASENIYGALNWYQRKQGKSPQLLIYGATNLADGMSSRFSGSGSGRQYSLKISSLHPDDVATYYCQNVLSTPYTFGGGTKLEIKESKYGPPCPPCPAPEAAGGPSVFLFPPKPKDTLMISRTPEVTCVVVDVSQEDPEVQFNWYVDGVEVHNAKTKPREEQFNSTYRVVSVLTVLHQDWLNGKEYKCKVSNKGLPSSIEKTISKAKGQPREPQVYTLPPSQEEMTKNQVSLTCLVKGFYPSDIAVEWESNGQPENNYKTTPPVLDSDGSFFLYSKLTVDKSRWQEGNVFSCSVMHEALHNHYTQKSLSLSLG
notes: scFv-Fc dimer
binding result (FGFR2c (acro) [1]): no binding (tested: 10 µg/mL)
binding result (FGFR4 (acro) [2]): no binding (tested: 10 µg/mL)
EC50 [3]: 0.0147 µg/mL
Kd [4]: 2.7 nM
koff [4]: 0.000954 s⁻¹
kon [4]: 353000 M⁻¹ s⁻¹
EC50 (FGFR2b on KATO III cells): 0.253 µg/mL
OD (450 nm) value (FGFR2c (acro) [5]): 0.118
OD (450 nm) value (FGFR4 (acro) [6]): 0.139
OD (450 nm) value [7]: 3.25

Source: EP4714976A1 (Sunshine Lake Pharma Co., Ltd., dated 2026)
